Measurements: patent US20050196396A1 (GREENVILLE HOSPITAL SYSTEM, published 2005)

Biological target: T1, KDR (full length, on cells) (human, UniProt P35968 20-1356)
T1 construct: whole, on cells; also called VEGFR2; kinase domain receptor
Experiment: radioligand binding on HUVEC; 125I-KDR (Ig4-7) displaced by unlabeled KDR (Ig4-7)
Experimental: ¹²⁵I-KDR (Ig4-7) (100,000 cpm=<1 ng) was incubated with HUVEC.
Total binding of KDR (Ig4-7) was also compared between HUVEC and two human breast cancer cell lines that were reported to have KDR expression (T47-D and MCF-7 cell lines) (FIG. 7). Specific binding of KDR (Ig4-7) was approximately 88%.

T1 sequence (P35968 20-1356): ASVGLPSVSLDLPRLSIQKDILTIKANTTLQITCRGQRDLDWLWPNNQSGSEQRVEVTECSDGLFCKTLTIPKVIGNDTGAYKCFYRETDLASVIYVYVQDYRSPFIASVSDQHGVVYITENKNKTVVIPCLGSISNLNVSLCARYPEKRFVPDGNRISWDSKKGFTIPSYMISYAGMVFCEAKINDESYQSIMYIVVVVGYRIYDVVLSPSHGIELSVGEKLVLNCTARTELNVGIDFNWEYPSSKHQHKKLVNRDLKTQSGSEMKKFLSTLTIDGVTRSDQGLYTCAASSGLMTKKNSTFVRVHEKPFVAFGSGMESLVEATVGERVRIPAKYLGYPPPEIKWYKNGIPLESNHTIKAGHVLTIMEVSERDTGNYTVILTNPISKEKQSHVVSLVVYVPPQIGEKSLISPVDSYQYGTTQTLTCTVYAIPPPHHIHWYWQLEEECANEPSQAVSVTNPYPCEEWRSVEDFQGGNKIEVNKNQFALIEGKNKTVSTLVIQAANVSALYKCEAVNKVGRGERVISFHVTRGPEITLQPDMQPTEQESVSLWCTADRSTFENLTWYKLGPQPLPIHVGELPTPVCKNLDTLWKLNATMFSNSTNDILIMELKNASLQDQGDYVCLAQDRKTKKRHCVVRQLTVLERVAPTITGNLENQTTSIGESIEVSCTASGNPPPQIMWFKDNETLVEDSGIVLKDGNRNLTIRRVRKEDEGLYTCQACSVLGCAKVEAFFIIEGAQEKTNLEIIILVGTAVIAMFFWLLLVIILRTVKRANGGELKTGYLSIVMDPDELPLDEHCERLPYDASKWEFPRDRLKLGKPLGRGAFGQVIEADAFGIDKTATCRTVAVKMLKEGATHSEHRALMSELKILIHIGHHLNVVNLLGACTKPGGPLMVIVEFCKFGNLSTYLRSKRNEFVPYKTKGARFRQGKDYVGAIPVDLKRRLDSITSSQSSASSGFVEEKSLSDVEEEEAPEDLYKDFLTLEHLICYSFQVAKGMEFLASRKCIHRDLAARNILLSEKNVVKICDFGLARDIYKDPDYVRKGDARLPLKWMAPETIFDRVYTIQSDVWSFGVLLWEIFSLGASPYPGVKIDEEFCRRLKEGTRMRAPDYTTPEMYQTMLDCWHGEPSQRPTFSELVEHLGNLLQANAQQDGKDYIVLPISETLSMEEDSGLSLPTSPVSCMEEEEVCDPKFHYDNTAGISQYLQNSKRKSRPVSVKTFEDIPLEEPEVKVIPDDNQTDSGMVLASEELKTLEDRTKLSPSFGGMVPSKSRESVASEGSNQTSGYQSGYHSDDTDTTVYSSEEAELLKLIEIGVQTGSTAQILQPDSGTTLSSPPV

B1: KDR (Ig4-7) (receptor)
chain: HMFVAFGSGMESLVEATVGERVRIPAKYLGYPPPEIKWYKNGIPLESNHTIKAGHVLTIMEVSERDTGNYTVILTNPISKEKQSHVVSLVVYVPPQIGEKSLISPVDSYQYGTTQTLTCTVYAIPPPHHIHWYWQLEEECANEPSQAVSVTNPYPCEEWRSVEDFQGGNKIEVNKNQFALIEGKNKTVSTLVIQAANVSALYKCEAVNKVGRGERVISFHVTRGPEITLQPDMQPTEQESVSLWCTADRSTFENLTWYKLGPQPLPIHVGELPTPVCKNLDTLWKLNATMFSNSTNDILIMELKNASLQDQGDYVCLAQDRKTKKRHCVVRQLTVLERVAPTITGNLENQTTSIGESIEVSCTASGNPPPQIMWFKDNETLVEDSGIVLKDGNRNLTIRRVRKEDEGLYTCQACSVLGCAKVEAFFIIEGAQEK
modifications: 125I-labeled as tracer (labelled residues not stated); unlabeled as competitor
notes: also called 125I-KDR (Ig4-7); 125I-labeled KDR (Ig4-7)
**Q.** With B1 as the binder, how does the EC50 read?
**A.** ~10 µg/mL
